The labels stand for the following.
B1: PR007164 (bispecific antibody)
chain 1: EVQLVESGGGLVQPGGSLRLSCAASGFTFSSYWMSWVRQAPGKGLEWVANIKQEGSEKYYVDSVKGRFTISRDNAKNSLYLQMNSLRAEDTAVYYCARDRAVAGAFDIWGQGTMVTVSSASTKGPSVFPLAPSSKSTSGGTAALGCLVKDYFPEPVTVSWNSGALTSGVHTFPAVLQSSGLYSLSSVVTVPSSSLGTQTYICNVNHKPSNTKVDKKVEPKSC
chain 2: not shown
B2: PR004270 (bispecific antibody)
chain 1: B1 chain 1
chain 2: not shown
B3: PR003551 (bispecific antibody)
light: DIQMTQSPSTLSASVGDRVTVTCRASQSIYIWLAWYQQKPGKAPNLLIYKASSLETGVPSRFSGSGSGTEFTLTISSLQPDDFATYYCQQYYGSSRTFGQGTKVEIKRTVAAPSVFIFPPSDEQLKSGTASVVCLLNNFYPREAKVQWKVDNALQSGNSQESVTEQDSKDSTYSLSSTLTLSKADYEKHKVYACEVTHQGLSSPVTKSFNRGEC
heavy: EVQLVESGGGLVQPGGSLRLSCAASGFTFSSYWMSWVRQAPGKGLEWVANIKQEGSEKYYVDSVKGRFTISRDNAKNSLYLQMNSLRAEDTAVYYCARDRAVAGAFDIWGQGTMVTVSSASTKGPSVFPLAPSSKSTSGGTAALGCLVKDYFPEPVTVSWNSGALTSGVHTFPAVLQSSGLYSLSSVVTVPSSSLGTQTYICNVNHKPSNTKVDKKVEPKSCDKTHTCPPCPAPEAAGGPSVFLFPPKPKDTLMISRTPEVTCVVVDVSHEDPEVKFNWYVDGVEVHNAKTKPREEQYNSTYRVVSVLTVLHQDWLNGKEYKCKVSNKALGAPIEKTISKAKGQPREPQVYTLPPSREEMTKNQVSLTCLVKGFYPSDIAVEWESNGQPENNYKTTPPVLDSDGSFFLYSKLTVDKSRWQQGNVFSCSVMHEALHNHYTQKSLSLSPGEPKSSDKTHTPPPPPRTEVQLLESGGGLVQPGGSLRLSCAASGFIFSNFAMTWVRQPPEKGLKWVSSINGSGFNTYYTDSVKGRFTISRDNSRNTLYLQMNRLTAEDTAVYFCAKEGSSETDDHYYNVDVWGQGTTVTVSS
B4: PR003550 (bispecific antibody)
light: B3 light
heavy: EVQLVESGGGLVQPGGSLRLSCAASGFTFSSYWMSWVRQAPGKGLEWVANIKQEGSEKYYVDSVKGRFTISRDNAKNSLYLQMNSLRAEDTAVYYCARDRAVAGAFDIWGQGTMVTVSSASTKGPSVFPLAPSSKSTSGGTAALGCLVKDYFPEPVTVSWNSGALTSGVHTFPAVLQSSGLYSLSSVVTVPSSSLGTQTYICNVNHKPSNTKVDKKVEPKSCDKTHTCPPCPAPEAAGGPSVFLFPPKPKDTLMISRTPEVTCVVVDVSHEDPEVKFNWYVDGVEVHNAKTKPREEQYNSTYRVVSVLTVLHQDWLNGKEYKCKVSNKALGAPIEKTISKAKGQPREPQVYTLPPSREEMTKNQVSLTCLVKGFYPSDIAVEWESNGQPENNYKTTPPVLDSDGSFFLYSKLTVDKSRWQQGNVFSCSVMHEALHNHYTQKSLSLSPGEPKSSDKTHTPPPPPRTEVQLVESGGGVVQPGGSLRLSCAASGFTFSNYAMTWVRQAPEKGLEWVSSISGSGVSTYYADSVKGRFTISRDNSKNTLYLQMTRLTAEDTAVYFCAKEGSSETDDHYYNVDVWGQGTTVTVSS
B5: PR007163 (bispecific antibody)
light: B3 light
heavy: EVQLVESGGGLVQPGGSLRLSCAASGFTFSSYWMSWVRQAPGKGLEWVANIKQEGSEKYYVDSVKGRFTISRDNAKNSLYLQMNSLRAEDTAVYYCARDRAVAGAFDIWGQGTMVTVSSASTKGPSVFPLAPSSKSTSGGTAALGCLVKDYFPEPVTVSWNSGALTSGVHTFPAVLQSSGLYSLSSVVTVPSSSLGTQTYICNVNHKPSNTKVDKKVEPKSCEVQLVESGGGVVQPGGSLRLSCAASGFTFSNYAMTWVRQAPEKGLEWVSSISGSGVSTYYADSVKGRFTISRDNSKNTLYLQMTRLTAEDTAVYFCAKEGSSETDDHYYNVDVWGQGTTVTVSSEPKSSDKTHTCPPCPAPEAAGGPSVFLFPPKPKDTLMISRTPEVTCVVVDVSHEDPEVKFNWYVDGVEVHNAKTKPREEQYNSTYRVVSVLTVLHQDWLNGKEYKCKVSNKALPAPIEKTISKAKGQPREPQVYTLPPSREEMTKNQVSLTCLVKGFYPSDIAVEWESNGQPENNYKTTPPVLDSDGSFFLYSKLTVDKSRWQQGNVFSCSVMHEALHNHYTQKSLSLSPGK
B6: PR003564 (bispecific antibody)
light: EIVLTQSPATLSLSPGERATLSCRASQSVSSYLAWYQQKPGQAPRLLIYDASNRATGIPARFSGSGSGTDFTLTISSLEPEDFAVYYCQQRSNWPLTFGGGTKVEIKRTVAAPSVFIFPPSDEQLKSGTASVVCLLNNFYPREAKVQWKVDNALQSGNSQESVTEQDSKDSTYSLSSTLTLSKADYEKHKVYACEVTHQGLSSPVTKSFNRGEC
heavy: EVQLLESGGGLVQPGGSLRLSCAASGFTFSSFVMSWVRQAPGKGLEWVSTISGSGRSTYYADSVKGRFTISRDNSKNTLHLQMNSLRAEDTAVYYCAKDAAAAGTKFDYWGQGTLVTVSSASTKGPSVFPLAPSSKSTSGGTAALGCLVKDYFPEPVTVSWNSGALTSGVHTFPAVLQSSGLYSLSSVVTVPSSSLGTQTYICNVNHKPSNTKVDKKVEPKSCDKTHTCPPCPAPEAAGGPSVFLFPPKPKDTLMISRTPEVTCVVVDVSHEDPEVKFNWYVDGVEVHNAKTKPREEQYNSTYRVVSVLTVLHQDWLNGKEYKCKVSNKALGAPIEKTISKAKGQPREPQVYTLPPSREEMTKNQVSLTCLVKGFYPSDIAVEWESNGQPENNYKTTPPVLDSDGSFFLYSKLTVDKSRWQQGNVFSCSVMHEALHNHYTQKSLSLSPGEPKSSDKTHTPPPPPRTEVQLLESGGGLVQPGGSLRLSCAASGFIFSNFAMTWVRQPPEKGLKWVSSINGSGFNTYYTDSVKGRFTISRDNSRNTLYLQMNRLTAEDTAVYFCAKEGSSETDDHYYNVDVWGQGTTVTVSS
B7: PR003563 (bispecific antibody)
light: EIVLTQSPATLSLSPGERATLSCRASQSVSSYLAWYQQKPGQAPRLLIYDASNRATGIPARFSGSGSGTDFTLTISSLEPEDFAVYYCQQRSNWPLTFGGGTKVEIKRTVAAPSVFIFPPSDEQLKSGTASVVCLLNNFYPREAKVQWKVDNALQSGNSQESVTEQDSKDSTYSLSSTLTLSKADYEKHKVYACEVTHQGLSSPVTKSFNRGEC
heavy: EVQLLESGGGLVQPGGSLRLSCAASGFTFSSFVMSWVRQAPGKGLEWVSTISGSGRSTYYADSVKGRFTISRDNSKNTLHLQMNSLRAEDTAVYYCAKDAAAAGTKFDYWGQGTLVTVSSASTKGPSVFPLAPSSKSTSGGTAALGCLVKDYFPEPVTVSWNSGALTSGVHTFPAVLQSSGLYSLSSVVTVPSSSLGTQTYICNVNHKPSNTKVDKKVEPKSCDKTHTCPPCPAPEAAGGPSVFLFPPKPKDTLMISRTPEVTCVVVDVSHEDPEVKFNWYVDGVEVHNAKTKPREEQYNSTYRVVSVLTVLHQDWLNGKEYKCKVSNKALGAPIEKTISKAKGQPREPQVYTLPPSREEMTKNQVSLTCLVKGFYPSDIAVEWESNGQPENNYKTTPPVLDSDGSFFLYSKLTVDKSRWQQGNVFSCSVMHEALHNHYTQKSLSLSPGEPKSSDKTHTPPPPPRTEVQLVESGGGVVQPGGSLRLSCAASGFTFSNYAMTWVRQAPEKGLEWVSSISGSGVSTYYADSVKGRFTISRDNSKNTLYLQMTRLTAEDTAVYFCAKEGSSETDDHYYNVDVWGQGTTVTVSS
B8: PR003562 (bispecific antibody)
light: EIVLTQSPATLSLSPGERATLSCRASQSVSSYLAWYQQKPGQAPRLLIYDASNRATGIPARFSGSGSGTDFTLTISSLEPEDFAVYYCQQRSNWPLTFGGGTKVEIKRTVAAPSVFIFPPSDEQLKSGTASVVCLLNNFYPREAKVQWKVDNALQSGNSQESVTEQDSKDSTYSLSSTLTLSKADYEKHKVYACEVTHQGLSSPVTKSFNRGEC
heavy: EVQLLESGGGLVQPGGSLRLSCAASGFTFSSFVMSWVRQAPGKGLEWVSTISGSGRSTYYADSVKGRFTISRDNSKNTLHLQMNSLRAEDTAVYYCAKDAAAAGTKFDYWGQGTLVTVSSASTKGPSVFPLAPSSKSTSGGTAALGCLVKDYFPEPVTVSWNSGALTSGVHTFPAVLQSSGLYSLSSVVTVPSSSLGTQTYICNVNHKPSNTKVDKKVEPKSCDKTHTCPPCPAPEAAGGPSVFLFPPKPKDTLMISRTPEVTCVVVDVSHEDPEVKFNWYVDGVEVHNAKTKPREEQYNSTYRVVSVLTVLHQDWLNGKEYKCKVSNKALGAPIEKTISKAKGQPREPQVYTLPPSREEMTKNQVSLTCLVKGFYPSDIAVEWESNGQPENNYKTTPPVLDSDGSFFLYSKLTVDKSRWQQGNVFSCSVMHEALHNHYTQKSLSLSPGEPKSSDKTHTPPPPPRTEVQLLESGGGLVQLGGSLRLSCAASGFTFSRYAMTWVRQAPEKGLEWVSSISGSGDDTYYGDSVKGRFTISRDNSQNTVYLQMNSLRAEDTAVYFCAKEKAGTTGDYYYNVDVWGQGTTVTVSS

The text below walks through data of patent US20230303698A1 (published 2023).

One assay deals with human PD-L1 (human, UniProt Q9NZQ7 19-290). Kind of assay: FACS.
Chain of human PD-L1 (Q9NZQ7 19-290): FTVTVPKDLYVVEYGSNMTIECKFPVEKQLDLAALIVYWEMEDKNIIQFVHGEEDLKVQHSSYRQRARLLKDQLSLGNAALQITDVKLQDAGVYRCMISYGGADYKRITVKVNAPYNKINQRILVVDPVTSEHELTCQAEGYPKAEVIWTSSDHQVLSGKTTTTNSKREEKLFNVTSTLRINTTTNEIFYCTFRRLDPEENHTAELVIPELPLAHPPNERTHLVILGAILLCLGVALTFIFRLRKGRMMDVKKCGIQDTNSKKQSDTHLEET
Take B1: the response was half-maximal at 1.93 nM (EC50).

Consider B2, for which the EC50 (as a rule, the midpoint of the concentration-response curve) worked out at 0.963 nM.

Turning to B3, the response was half-maximal at 1.29 nM (EC50).

On to B4, for which the EC50 came out at 1.11 nM.

Turning to B5, the EC50 is 2.26 nM.

The target of the next assay is T1, human 4-1BB (human, UniProt Q07011 24-255). Nature of the assay: FACS. A general note: A flow cytometer gives signals particle by particle.
The molecule B3 gave an EC50 of 3.15 nM.

For the next assay, the target named is T1, human 4-1BB. Nature of the assay: FACS. This is another data set of the same source.
With B6, the midpoint of the response, the EC50, lay at 2.78 nM.

B7 had an EC50 of 1.65 nM.

B8 came in with an EC50 of 1.87 nM.
